Measured values taken from patent US20190106460A1 (published 2019).
Starred links: 1 amine or outer side, 2 acyl side, 3 side chain; linkers in the order of their positions; H or OH if unused. Non-standard residues stand in square brackets, D forms with d. No end group written: not given here. *: point of attachment. Tyr(Me) = O-methyl-L-tyrosine, COc1ccc(C[C@H](N[*:1])C(=O)[*:2])cc1; Phe(4-NO2) = N[C@@H](Cc1ccc([N+](=O)[O-])cc1)C(=O)O; 2,4,6‑trimethylbenzoyl = Cc1cc(C)c(C(=O)*)c(C)c1; Benzenesulfonyl(4-OMe) = COc1ccc(S(=O)(=O)*)cc1; Benzoyl(4-tBu) = CC(C)(C)c1ccc(C(=O)*)cc1; Phe(3-F) = N[C@@H](Cc1cccc(F)c1)C(=O)O; Phe(4-F) = N[C@@H](Cc1ccc(F)cc1)C(=O)O; 1Nal = N[C@@H](Cc1cccc2ccccc12)C(=O)O; Phe(2-F) = N[C@@H](Cc1ccccc1F)C(=O)O; Maleoyl = O=C(/C=C\C(=O)[*:2])[*:1]; Benzoyl(4-Br) = O=C(c1ccc(Br)cc1)*; 2Naphthoyl = O=C(c1ccc2ccccc2c1)*; Benzoyl(4-Me) = Cc1ccc(C(=O)*)cc1; pS = N[C@@H](COP(=O)(O)O)C(=O)O; Suc = O=C(CCC(=O)[*:2])[*:1]; Hexanoyl = CCCCCC(=O)*; Bz = O=C(c1ccccc1)*; Ahx = NCCCCCC(=O)O

How the values were obtained:
[1] = target: T1, Beta Transducin repeat-containing protein (βTrCP), tag cleaved and complexed with Skp1 (UniProt Q9Y297 175-605; P63208 1-163); test: FP competition dose-response, fluorescein-IkB peptide tracer on βTrCP/Skp1 (average Ki; assay not given)
T1 construct: the FP protocol says that Ki is determined from FP dose-response curves; also called βTrCP/Skp1
T1 sequence (Q9Y297 175-605, chain 1 of 2): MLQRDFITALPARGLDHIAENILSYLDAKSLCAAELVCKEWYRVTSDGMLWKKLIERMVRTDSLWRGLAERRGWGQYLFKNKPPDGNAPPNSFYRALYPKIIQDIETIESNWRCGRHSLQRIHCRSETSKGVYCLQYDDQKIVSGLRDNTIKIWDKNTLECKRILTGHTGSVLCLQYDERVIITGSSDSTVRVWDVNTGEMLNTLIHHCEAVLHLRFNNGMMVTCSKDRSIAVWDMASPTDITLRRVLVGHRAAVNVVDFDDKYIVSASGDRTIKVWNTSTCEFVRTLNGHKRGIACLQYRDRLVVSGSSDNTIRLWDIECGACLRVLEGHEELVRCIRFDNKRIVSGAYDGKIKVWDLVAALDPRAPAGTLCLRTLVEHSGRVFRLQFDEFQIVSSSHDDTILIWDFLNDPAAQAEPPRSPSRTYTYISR
T1 sequence (P63208 whole entry, chain 2 of 2): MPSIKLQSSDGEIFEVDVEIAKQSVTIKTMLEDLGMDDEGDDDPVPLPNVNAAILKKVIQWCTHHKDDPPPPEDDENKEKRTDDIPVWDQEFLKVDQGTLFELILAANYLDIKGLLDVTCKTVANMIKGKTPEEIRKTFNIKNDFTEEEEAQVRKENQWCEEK

[2] = target: Skp2 (UniProt Q13309 1-424, limits assumed); test: cell-based or functional assay
Skp2, sequence (Q13309 whole entry): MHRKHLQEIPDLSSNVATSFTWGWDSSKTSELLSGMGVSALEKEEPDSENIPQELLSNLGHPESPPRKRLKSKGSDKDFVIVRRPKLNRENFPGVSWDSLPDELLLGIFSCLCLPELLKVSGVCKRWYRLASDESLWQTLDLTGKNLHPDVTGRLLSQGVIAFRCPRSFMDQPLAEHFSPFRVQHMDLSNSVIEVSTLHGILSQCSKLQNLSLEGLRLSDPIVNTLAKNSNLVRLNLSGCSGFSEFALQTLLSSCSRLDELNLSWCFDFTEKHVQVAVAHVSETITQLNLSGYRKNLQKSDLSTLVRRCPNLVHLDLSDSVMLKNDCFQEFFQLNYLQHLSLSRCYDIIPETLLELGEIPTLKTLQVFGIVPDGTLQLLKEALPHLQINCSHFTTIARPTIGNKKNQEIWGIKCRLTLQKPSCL

[3] = target: Fbw7 (UniProt Q969H0 263-707, limits assumed); test: cell-based or functional assay
Fbw7, sequence (Q969H0 263-707 limits assumed): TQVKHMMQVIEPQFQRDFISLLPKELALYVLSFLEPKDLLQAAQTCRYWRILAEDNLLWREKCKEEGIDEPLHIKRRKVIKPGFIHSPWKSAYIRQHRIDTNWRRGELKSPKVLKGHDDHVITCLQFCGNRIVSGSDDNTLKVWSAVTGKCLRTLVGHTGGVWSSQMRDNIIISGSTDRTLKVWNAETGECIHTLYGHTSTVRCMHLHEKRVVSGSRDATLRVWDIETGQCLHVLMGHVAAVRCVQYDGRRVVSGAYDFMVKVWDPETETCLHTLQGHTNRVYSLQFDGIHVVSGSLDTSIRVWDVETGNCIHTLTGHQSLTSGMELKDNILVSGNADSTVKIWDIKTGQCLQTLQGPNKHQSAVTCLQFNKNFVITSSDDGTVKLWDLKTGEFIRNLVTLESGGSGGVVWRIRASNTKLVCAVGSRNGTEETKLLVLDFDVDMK

## {Benzenesulfonyl(4-OMe)}-[dD]EG[Phe(3-F)]WE[Ahx]K(2Naphthoyl)-NH2 (also called UBP055) [4-(MeO)PhSO2-dEGF(3F)WE-Ahx-K(NHCO-2-Naph)-NH2]
[1]
  Ki: 1.85 nM

## {Benzenesulfonyl(4-OMe)}-[dD]EG[Phe(3-F)]WE[Ahx]K(Benzoyl(4-tBu))-NH2 (also called UBP054) [4-(MeO)PhSO2-dEGF(3F)WE-Ahx-K(NHCO-(4-(t-Bu-Ph))-NH2]
[1]
  Ki: 1.94 nM

## Suc-EGY[1Nal]E-NH2 [Suc-EGY1NalE-NH2]
[2]
  % Inhibition Skp2 @ 10 µM: 0%
  % Inhibition Skp2 @ (100 µM): 6%
[3]
  % Inhibition Fbw7 @ 10 µM: 1%
  % Inhibition Fbw7 @ (100 µM): 5%

## {Benzenesulfonyl(4-OMe)}-[dD]EG[Phe(3-F)]WE[Ahx]K(Benzoyl(4-Br))-NH2 (also called UBP058) [4-(MeO)PhSO2-dEGF(3F)WE-Ahx-K(NHCO-(4-(Br)-Ph))-NH2]
[1]
  Ki: 3.35 nM

B1: Suc-EGYF(4NO2)E-NH2 (peptide)
peptide: Suc-EGY[Phe(4-NO2)]E-NH2
SMILES: NC(=O)[C@H](CCC(=O)O)NC(=O)[C@H](Cc1ccc([N+](=O)[O-])cc1)NC(=O)[C@H](Cc1ccc(O)cc1)NC(=O)CNC(=O)[C@H](CCC(=O)O)NC(=O)CCC(=O)O
[2]
  % Inhibition Skp2 @ 10 µM: 11%
  % Inhibition Skp2 @ (100 µM): 31%
[3]
  % Inhibition Fbw7 @ 10 µM: 0%
  % Inhibition Fbw7 @ (100 µM): 0%

## {Benzenesulfonyl(4-OMe)}-[dD]EG[Phe(3-F)]WE[Ahx]K(1‑naphthyloxycarbonyl)-NH2 (also called UBP069) [4-(MeO)PhSO2-dEGF(3F)WE-Ahx-K(NHOCO-1-Naph)-NH2]
[1]
  Ki: 11.6 nM

## {Benzenesulfonyl(4-OMe)}-[dD]EG[Phe(3-F)]WE[Ahx]K(2,4,6‑trimethylbenzoyl)-NH2 (also called UBP056) [4-(MeO)PhSO2-dEGF(3F)WE-Ahx-K(NHCO-(2,4,6-(Me)3-Ph))-NH2]
[1]
  Ki: 3.39 nM

## {Benzenesulfonyl(4-OMe)}-[dD]EG[Phe(3-F)]WE[Ahx]K(4‑bromophenylsulfonyl)-NH2 (also called UBP059) [4-(MeO)PhSO2-dEGF(3F)WE-Ahx-K(NHSO2-(4-(Br)-Ph))-NH2]
[1]
  Ki: 2.96 nM

## {Benzenesulfonyl(4-OMe)}-[dD]EG[Phe(3-F)]WE[Ahx]K(4‑isopropylphenylsulfonyl)-NH2 (also called UBP072) [4-(MeO)PhSO2-dEGF(3F)WE-Ahx-K(NHSO2-(4-i-Pr)-Ph))-NH2]
[1]
  Ki: 12.9 nM

B2: Suc-EGF(2F)F(4NO2)E-NH2 (peptide)
peptide: Suc-EG[Phe(2-F)][Phe(4-NO2)]E-NH2
SMILES: NC(=O)[C@H](CCC(=O)O)NC(=O)[C@H](Cc1ccc([N+](=O)[O-])cc1)NC(=O)[C@H](Cc1ccccc1F)NC(=O)CNC(=O)[C@H](CCC(=O)O)NC(=O)CCC(=O)O
[2]
  % Inhibition Skp2 @ 10 µM: 8%
  % Inhibition Skp2 @ (100 µM): 11%
[3]
  % Inhibition Fbw7 @ 10 µM: 0%
  % Inhibition Fbw7 @ (100 µM): 0%

## {Benzenesulfonyl(4-OMe)}-[dD]EG[Phe(3-F)]WE[Ahx]K(Bz)-NH2 (also called UBP061) [4-(MeO)PhSO2-dEGF(3F)WE-Ahx-K(NHCOPh)-NH2]
[1]
  Ki: 3.1 nM

## {Benzenesulfonyl(4-OMe)}-[dD]EG[Phe(3-F)]WE[Ahx]K(phenylsulfonyl)-NH2 (also called UBP073) [4-(MeO)PhSO2-dEGF(3F)WE-Ahx-K(NHSO2Ph)-NH2]
[1]
  Ki: 13 nM

B3: 4-(MeO)PhSO2-dEGF(3F)WE-Ahx-K(NHCO-Ph)-NH2 (peptide)
peptide: {Benzenesulfonyl(4-OMe)}-[dD]EG[Phe(3-F)]WE[Ahx]K-NH2
modifications: not fully specified (residue 8); printed as 4-(MeO)PhSO2-dEGF(3F)WE-Ahx-K(NHCO-Ph)-NH2
notes: also called UBP065
[1]
  Ki: 5.94 nM

B4: Mal-EGF(3F)F(4NO2)E-NH2 (peptide)
peptide: Maleoyl-EG[Phe(3-F)][Phe(4-NO2)]E-NH2
SMILES: NC(=O)[C@H](CCC(=O)O)NC(=O)[C@H](Cc1ccc([N+](=O)[O-])cc1)NC(=O)[C@H](Cc1cccc(F)c1)NC(=O)CNC(=O)[C@H](CCC(=O)O)NC(=O)/C=C\C(=O)O
[2]
  % Inhibition Skp2 @ 10 µM: 0%
  % Inhibition Skp2 @ (100 µM): 14%
[3]
  % Inhibition Fbw7 @ 10 µM: 0%
  % Inhibition Fbw7 @ (100 µM): 18%

## {Benzenesulfonyl(4-OMe)}-[dD]EG[Phe(3-F)]WE[Ahx]K(Hexanoyl)-NH2 (also called UBP063) [4-(MeO)PhSO2-dEGF(3F)WE-Ahx-K(NHCO-(CH2)4CH3)-NH2]
[1]
  Ki: 5.37 nM

## Suc-EG[Phe(3-F)][1Nal]E-NH2 [Suc-EGF(3F)1NalE-NH2]
[2]
  % Inhibition Skp2 @ 10 µM: 0%
  % Inhibition Skp2 @ (100 µM): 12%
[3]
  % Inhibition Fbw7 @ 10 µM: 3%
  % Inhibition Fbw7 @ (100 µM): 0%

B5: Suc-EGF(3F)F(4NO2)E-NH2 (peptide)
peptide: Suc-EG[Phe(3-F)][Phe(4-NO2)]E-NH2
SMILES: NC(=O)[C@H](CCC(=O)O)NC(=O)[C@H](Cc1ccc([N+](=O)[O-])cc1)NC(=O)[C@H](Cc1cccc(F)c1)NC(=O)CNC(=O)[C@H](CCC(=O)O)NC(=O)CCC(=O)O
[2]
  % Inhibition Skp2 @ 10 µM: 0%
  % Inhibition Skp2 @ (100 µM): 3%
[3]
  % Inhibition Fbw7 @ 10 µM: 0%
  % Inhibition Fbw7 @ (100 µM): 2%

## {Benzenesulfonyl(4-OMe)}-[dD]EG[Phe(3-F)]WE[Ahx]K(4‑(dimethylamino)benzoyl)-NH2 (also called UBP071) [4-(MeO)PhSO2 dEGF(3F)WE-Ahx-K(NHCO-(4-(Me2N)-Ph))-NH2]
[1]
  Ki: 9.51 nM

B6: 4-(MeO)PhSO2-dEGF(3F)WE-NH2 (peptide)
peptide: {Benzenesulfonyl(4-OMe)}-[dD]EG[Phe(3-F)]WE-NH2
SMILES: COc1ccc(S(=O)(=O)N[C@H](CC(=O)O)C(=O)N[C@@H](CCC(=O)O)C(=O)NCC(=O)N[C@@H](Cc2cccc(F)c2)C(=O)N[C@@H](Cc2c[nH]c3ccccc23)C(=O)N[C@@H](CCC(=O)O)C(N)=O)cc1
notes: also called UBP022
[1]
  Ki: 5.78 nM

B7: DpSGIFE-NH2 (peptide)
peptide: D[pS]GIFE-NH2
modifications: N-terminus assumed
SMILES: CC[C@H](C)[C@H](NC(=O)CNC(=O)[C@H](COP(=O)(O)O)NC(=O)[C@@H](N)CC(=O)O)C(=O)N[C@@H](Cc1ccccc1)C(=O)N[C@@H](CCC(=O)O)C(N)=O
[2]
  % Inhibition Skp2 @ 10 µM: 8%
  % Inhibition Skp2 @ (100 µM): 13%
[3]
  % Inhibition Fbw7 @ 10 µM: 0%
  % Inhibition Fbw7 @ (100 µM): 0%

## {Benzenesulfonyl(4-OMe)}-[dD]EG[Phe(3-F)]WE[Ahx]K(3,5‑dichlorobenzoyl)-NH2 (also called UBP062) [4-(MeO)PhSO2-dEGF(3F)WE-Ahx-K(NHCO-(3,5-(Cl)2-Ph))-NH2]
[1]
  Ki: 6.23 nM

## {4‑i‑Pr‑PhSO2}-[dD]EG[Phe(3-F)]WE-NH2 (also called UBP040) [4-i-Pr-PhSO2-dEGF(3F)WE-NH2]
[1]
  Ki: 1.6 nM

B8: Suc-QGF(3F)F(4NO2)E-NH2 (peptide)
peptide: QGXXE
modifications: N-terminal Suc (succinyl) cap; position 3 F(3F); position 4 F(4NO2); C-terminal amide
[2]
  % Inhibition Skp2 @ 10 µM: 0%
  % Inhibition Skp2 @ (100 µM): 0%
[3]
  % Inhibition Fbw7 @ 10 µM: 0%
  % Inhibition Fbw7 @ (100 µM): 0%

B9: Suc-EGF(2F)Y(Me)E-NH2 (peptide)
peptide: Suc-EG[Phe(2-F)][Tyr(Me)]E-NH2
SMILES: COc1ccc(C[C@H](NC(=O)[C@H](Cc2ccccc2F)NC(=O)CNC(=O)[C@H](CCC(=O)O)NC(=O)CCC(=O)O)C(=O)N[C@@H](CCC(=O)O)C(N)=O)cc1
[2]
  % Inhibition Skp2 @ 10 µM: 0%
  % Inhibition Skp2 @ (100 µM): 4%
[3]
  % Inhibition Fbw7 @ 10 µM: 0%
  % Inhibition Fbw7 @ (100 µM): 4%

B10: Suc-EGF(4NO2)1NalE-NH2 (peptide)
peptide: Suc-EG[Phe(4-NO2)][1Nal]E-NH2
SMILES: NC(=O)[C@H](CCC(=O)O)NC(=O)[C@H](Cc1cccc2ccccc12)NC(=O)[C@H](Cc1ccc([N+](=O)[O-])cc1)NC(=O)CNC(=O)[C@H](CCC(=O)O)NC(=O)CCC(=O)O
[2]
  % Inhibition Skp2 @ 10 µM: 12%
  % Inhibition Skp2 @ (100 µM): 6%
[3]
  % Inhibition Fbw7 @ 10 µM: 14%
  % Inhibition Fbw7 @ (100 µM): 28%

B11: 4-(MeO)PhSO2-dEGF(3F)WE-Ahx-K(NHCO-CH2CH2Ch(CH3)2)-NH2 (peptide)
peptide: {Benzenesulfonyl(4-OMe)}-[dD]EG[Phe(3-F)]WE[Ahx]K-NH2
modifications: not fully specified (residue 8); printed as 4-(MeO)PhSO2-dEGF(3F)WE-Ahx-K(NHCO-CH2CH2Ch(CH3)2)-NH2
notes: also called UBP068
[1]
  Ki: 5.38 nM

## {Benzenesulfonyl(4-OMe)}-[dD]EG[Phe(3-F)]WE[Ahx]K(4‑methoxybenzoyl)-NH2 (also called UBP066) [4-(MeO)PhSO2-dEGF(3F)WE-Ahx-K(NHCO-(4-(OMe)-Ph))-NH2]
[1]
  Ki: 5.17 nM

B12: Suc-EGF(4F)F(4NO2)E-NH2 (peptide)
peptide: Suc-EG[Phe(4-F)][Phe(4-NO2)]E-NH2
SMILES: NC(=O)[C@H](CCC(=O)O)NC(=O)[C@H](Cc1ccc([N+](=O)[O-])cc1)NC(=O)[C@H](Cc1ccc(F)cc1)NC(=O)CNC(=O)[C@H](CCC(=O)O)NC(=O)CCC(=O)O
[2]
  % Inhibition Skp2 @ 10 µM: 0%
  % Inhibition Skp2 @ (100 µM): 0%
[3]
  % Inhibition Fbw7 @ 10 µM: 0%
  % Inhibition Fbw7 @ (100 µM): 0%

## {Benzenesulfonyl(4-OMe)}-[dD]EG[Phe(3-F)]WE[Ahx]K(4‑n‑propylphenylsulfonyl)-NH2 (also called UBP074) [4-(MeO)PhSO2-dEGF(3F)WE-Ahx-K(NHSO2-(4-(n-Pr)-Ph)-NH2]
[1]
  Ki: 28.6 nM

## {Benzenesulfonyl(4-OMe)}-[dD]EG[Phe(3-F)]WE[Ahx]K(Benzoyl(4-Me))-NH2 (also called UBP057) [4-(MeO)PhSO2-dEGF(3F)WE-Ahx-K(NHCO-(4-(ME)-Ph))-NH2]
[1]
  Ki: 2.88 nM

## {Benzenesulfonyl(4-OMe)}-[dD]EG[Phe(3-F)]WE[Ahx]K(4‑(trifluoromethyl)benzoyl)-NH2 (also called UBP064) [4-(MeO)PhSO2-dEGF(3F)WE-Ahx-K(NHCO-(4-(CF3)-Ph))-NH2]
[1]
  Ki: 6.39 nM

## {Benzenesulfonyl(4-OMe)}-[dD]EG[Phe(3-F)]WE[Ahx]K(4‑chlorobenzoyl)-NH2 (also called UBP060) [4-(MeO)PhSO2-dEGF(3F)WE-Ahx-K(NHCO-(4-(Cl)-Ph))-NH2]
[1]
  Ki: 3.64 nM

## {4‑Pr‑PhSO2}-[dD]EG[Phe(3-F)]WE-NH2 (also called UBP041) [4-Pr-PhSO2-dEGF(3F)WE-NH2]
[1]
  Ki: 1.77 nM

## {Benzenesulfonyl(4-OMe)}-[dD]EG[Phe(3-F)]WE[Ahx]K(phenylcarbamoyl)-NH2 [4-(MeO)PhSO2-dEGF(3F)WE-Ahx-K(NHCONH-Ph)-NH2]
[1]
  Ki: 5.61 nM
